The values that follow come from patent publication US20080044360A1 (COLLAGEN MEDICAL, published 2008).

Bridge positions count the residues as written; N and C are the ends. Square brackets hold non-standard residues; d marks the D form. Ends that are not written are not given here.

The chains are these.
B1: SEQ ID NO 178 (peptide)
peptide: QWTCSGDEYTWHCNY[dE]
modifications: disulfide 4-13 (inferred); not fully specified (N-terminus); printed as QWTCSGDEYTWHCNYe
notes: cyclic, disulfide
B2: SEQ ID NO 164 (peptide)
peptide: [dQ]WTCSGDEYTWHCNYE
modifications: disulfide 4-13 (inferred); not fully specified (N-terminus, C-terminus); printed as qWTCSGDEYTWHCNYE
notes: cyclic, disulfide
B3: SEQ ID NO 172 (peptide)
peptide: QWTCSGDEY[dT]WHCNYE
modifications: disulfide 4-13 (inferred); not fully specified (N-terminus); printed as QWTCSGDEYtWHCNYE
notes: cyclic, disulfide
B4: SEQ ID NO 170 (peptide)
peptide: QWTCSGD[dE]YTWHCNYE
modifications: disulfide 4-13 (inferred); not fully specified (N-terminus); printed as QWTCSGDeYTWHCNYE
notes: cyclic, disulfide
B5: SEQ ID NO 177 (peptide)
peptide: QWTCSGDEYTWHCN[dY]E
modifications: disulfide 4-13 (inferred); not fully specified (N-terminus); printed as QWTCSGDEYTWHCNyE
notes: cyclic, disulfide
B6: SEQ ID NO 157 (peptide)
peptide: YHACY[dQ]AGCWIW
modifications: disulfide 4-9 (inferred); not fully specified (C-terminus); printed as YHACYqAGCWIW
notes: cyclic, disulfide; also called YHACYqAGCWIW
B7: SEQ ID NO 161 (peptide)
peptide: YHACYQAGCW[dI]W
modifications: disulfide 4-9 (inferred); not fully specified (C-terminus); printed as YHACYQAGCWiW
notes: cyclic, disulfide
B8: SEQ ID NO 155 (peptide)
peptide: YHA[dC]YQAGCWIW
modifications: disulfide 4-9 (inferred); not fully specified (C-terminus); printed as YHAcYQAGCWIW
notes: cyclic, disulfide
B9: SEQ ID NO 160 (peptide)
peptide: YHACYQAGC[dW]IW
modifications: disulfide 4-9 (inferred); not fully specified (C-terminus); printed as YHACYQAGCwIW
notes: cyclic, disulfide
B10: SEQ ID NO 158 (peptide)
peptide: YHACYQ[dA]GCWIW
modifications: disulfide 4-9 (inferred); not fully specified (C-terminus); printed as YHACYQaGCWIW
notes: cyclic, disulfide; also called YHACYQaGCWIW
B11: SEQ ID NO 153 (peptide)
peptide: Y[dH]ACYQAGCWIW
modifications: disulfide 4-9 (inferred); not fully specified (C-terminus); printed as YhACYQAGCWIW
notes: cyclic, disulfide
B12: SEQ ID NO 156 (peptide)
peptide: YHAC[dY]QAGCWIW
modifications: disulfide 4-9 (inferred); not fully specified (C-terminus); printed as YHACyQAGCWIW
notes: cyclic, disulfide; also called YHACyQAGCWIW
B13: SEQ ID NO 154 (peptide)
peptide: YH[dA]CYQAGCWIW
modifications: disulfide 4-9 (inferred); not fully specified (C-terminus); printed as YHaCYQAGCWIW
notes: cyclic, disulfide

T1 sequence (P02452 162-1218 limits assumed, chain 1 of 2): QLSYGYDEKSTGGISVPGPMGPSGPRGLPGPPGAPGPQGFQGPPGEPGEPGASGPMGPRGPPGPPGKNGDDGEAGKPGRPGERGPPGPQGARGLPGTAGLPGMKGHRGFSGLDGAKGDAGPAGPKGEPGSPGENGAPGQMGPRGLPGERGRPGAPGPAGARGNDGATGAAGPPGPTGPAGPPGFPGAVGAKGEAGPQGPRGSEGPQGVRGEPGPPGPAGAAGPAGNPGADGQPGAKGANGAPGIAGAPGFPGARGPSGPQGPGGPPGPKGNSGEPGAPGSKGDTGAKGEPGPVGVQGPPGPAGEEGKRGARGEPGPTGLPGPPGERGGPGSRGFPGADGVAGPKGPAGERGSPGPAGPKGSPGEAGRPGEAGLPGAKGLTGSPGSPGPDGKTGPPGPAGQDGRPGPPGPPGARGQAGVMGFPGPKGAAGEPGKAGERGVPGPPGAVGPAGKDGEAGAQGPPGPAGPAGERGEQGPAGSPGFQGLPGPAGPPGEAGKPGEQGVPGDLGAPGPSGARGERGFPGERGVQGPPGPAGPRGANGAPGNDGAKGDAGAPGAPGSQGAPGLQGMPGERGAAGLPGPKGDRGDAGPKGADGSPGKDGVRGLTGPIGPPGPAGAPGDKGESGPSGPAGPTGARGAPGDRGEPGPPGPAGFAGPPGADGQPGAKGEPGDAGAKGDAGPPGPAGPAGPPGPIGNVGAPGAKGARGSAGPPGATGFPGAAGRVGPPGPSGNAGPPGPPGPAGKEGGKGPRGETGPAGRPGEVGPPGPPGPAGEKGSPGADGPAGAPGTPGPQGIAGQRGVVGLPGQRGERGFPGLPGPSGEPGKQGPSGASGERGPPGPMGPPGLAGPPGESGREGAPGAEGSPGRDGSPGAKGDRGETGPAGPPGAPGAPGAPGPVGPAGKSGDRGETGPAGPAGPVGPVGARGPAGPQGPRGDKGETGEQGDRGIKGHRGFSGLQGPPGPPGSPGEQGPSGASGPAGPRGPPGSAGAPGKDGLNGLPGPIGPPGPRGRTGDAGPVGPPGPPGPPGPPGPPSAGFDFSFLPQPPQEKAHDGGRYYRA
T1 sequence (P08123 80-1119 limits assumed, chain 2 of 2): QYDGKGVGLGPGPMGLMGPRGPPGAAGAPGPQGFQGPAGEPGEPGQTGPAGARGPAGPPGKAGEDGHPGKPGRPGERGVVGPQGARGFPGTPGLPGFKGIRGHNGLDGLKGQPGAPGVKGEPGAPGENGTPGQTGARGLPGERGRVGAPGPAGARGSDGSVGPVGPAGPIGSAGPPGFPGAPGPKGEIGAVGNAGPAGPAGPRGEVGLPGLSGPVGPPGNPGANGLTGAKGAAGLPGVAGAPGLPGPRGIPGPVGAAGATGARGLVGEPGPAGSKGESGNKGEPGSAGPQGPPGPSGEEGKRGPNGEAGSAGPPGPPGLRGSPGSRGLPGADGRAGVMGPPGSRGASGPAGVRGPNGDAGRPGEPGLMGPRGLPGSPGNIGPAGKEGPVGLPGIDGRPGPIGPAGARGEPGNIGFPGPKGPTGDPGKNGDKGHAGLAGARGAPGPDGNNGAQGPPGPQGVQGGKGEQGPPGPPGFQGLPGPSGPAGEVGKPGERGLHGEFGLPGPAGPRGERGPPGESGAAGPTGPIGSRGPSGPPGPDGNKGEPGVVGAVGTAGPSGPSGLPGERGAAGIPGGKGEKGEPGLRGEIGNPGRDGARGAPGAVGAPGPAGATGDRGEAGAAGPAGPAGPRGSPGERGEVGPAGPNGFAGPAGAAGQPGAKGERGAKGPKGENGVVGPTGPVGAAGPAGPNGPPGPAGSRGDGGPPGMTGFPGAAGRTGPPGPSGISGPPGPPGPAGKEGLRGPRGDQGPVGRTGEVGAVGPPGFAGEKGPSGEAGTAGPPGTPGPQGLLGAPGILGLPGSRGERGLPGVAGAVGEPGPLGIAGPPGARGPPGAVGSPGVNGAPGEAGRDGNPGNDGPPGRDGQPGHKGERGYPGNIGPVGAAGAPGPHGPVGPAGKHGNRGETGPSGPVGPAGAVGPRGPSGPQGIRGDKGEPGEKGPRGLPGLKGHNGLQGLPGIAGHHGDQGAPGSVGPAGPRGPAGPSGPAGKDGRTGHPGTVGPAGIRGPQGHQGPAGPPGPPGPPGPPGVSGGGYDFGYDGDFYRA
T2 sequence (P02454 152-1207, chain 1 of 2): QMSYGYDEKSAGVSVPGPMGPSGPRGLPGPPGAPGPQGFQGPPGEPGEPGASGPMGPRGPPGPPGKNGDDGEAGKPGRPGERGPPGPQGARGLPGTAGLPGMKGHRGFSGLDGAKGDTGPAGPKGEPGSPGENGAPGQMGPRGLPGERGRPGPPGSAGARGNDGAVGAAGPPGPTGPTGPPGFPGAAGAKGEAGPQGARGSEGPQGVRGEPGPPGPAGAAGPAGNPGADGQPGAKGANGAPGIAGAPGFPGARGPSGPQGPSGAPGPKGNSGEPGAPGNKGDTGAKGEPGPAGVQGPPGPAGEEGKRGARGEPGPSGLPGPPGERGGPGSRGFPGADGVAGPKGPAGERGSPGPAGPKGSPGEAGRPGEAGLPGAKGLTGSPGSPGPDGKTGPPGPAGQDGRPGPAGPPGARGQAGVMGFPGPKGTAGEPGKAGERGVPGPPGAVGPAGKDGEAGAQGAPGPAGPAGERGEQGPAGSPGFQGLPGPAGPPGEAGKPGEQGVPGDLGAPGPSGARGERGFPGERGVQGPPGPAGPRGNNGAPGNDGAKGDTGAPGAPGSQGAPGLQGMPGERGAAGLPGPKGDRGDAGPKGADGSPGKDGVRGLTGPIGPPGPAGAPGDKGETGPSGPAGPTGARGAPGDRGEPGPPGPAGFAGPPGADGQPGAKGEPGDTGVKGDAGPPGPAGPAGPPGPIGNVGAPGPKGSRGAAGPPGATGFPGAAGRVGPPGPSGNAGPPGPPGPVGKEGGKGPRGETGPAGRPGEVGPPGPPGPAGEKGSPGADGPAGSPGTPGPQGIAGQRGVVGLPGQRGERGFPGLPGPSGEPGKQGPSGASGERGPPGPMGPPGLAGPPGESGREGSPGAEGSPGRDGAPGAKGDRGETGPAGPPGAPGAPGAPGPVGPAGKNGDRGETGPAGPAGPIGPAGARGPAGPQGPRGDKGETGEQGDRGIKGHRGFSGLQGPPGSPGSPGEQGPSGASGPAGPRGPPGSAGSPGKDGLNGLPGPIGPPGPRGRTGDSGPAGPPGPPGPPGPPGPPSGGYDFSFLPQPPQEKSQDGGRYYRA
T2 sequence (P02466 86-1125, chain 2 of 2): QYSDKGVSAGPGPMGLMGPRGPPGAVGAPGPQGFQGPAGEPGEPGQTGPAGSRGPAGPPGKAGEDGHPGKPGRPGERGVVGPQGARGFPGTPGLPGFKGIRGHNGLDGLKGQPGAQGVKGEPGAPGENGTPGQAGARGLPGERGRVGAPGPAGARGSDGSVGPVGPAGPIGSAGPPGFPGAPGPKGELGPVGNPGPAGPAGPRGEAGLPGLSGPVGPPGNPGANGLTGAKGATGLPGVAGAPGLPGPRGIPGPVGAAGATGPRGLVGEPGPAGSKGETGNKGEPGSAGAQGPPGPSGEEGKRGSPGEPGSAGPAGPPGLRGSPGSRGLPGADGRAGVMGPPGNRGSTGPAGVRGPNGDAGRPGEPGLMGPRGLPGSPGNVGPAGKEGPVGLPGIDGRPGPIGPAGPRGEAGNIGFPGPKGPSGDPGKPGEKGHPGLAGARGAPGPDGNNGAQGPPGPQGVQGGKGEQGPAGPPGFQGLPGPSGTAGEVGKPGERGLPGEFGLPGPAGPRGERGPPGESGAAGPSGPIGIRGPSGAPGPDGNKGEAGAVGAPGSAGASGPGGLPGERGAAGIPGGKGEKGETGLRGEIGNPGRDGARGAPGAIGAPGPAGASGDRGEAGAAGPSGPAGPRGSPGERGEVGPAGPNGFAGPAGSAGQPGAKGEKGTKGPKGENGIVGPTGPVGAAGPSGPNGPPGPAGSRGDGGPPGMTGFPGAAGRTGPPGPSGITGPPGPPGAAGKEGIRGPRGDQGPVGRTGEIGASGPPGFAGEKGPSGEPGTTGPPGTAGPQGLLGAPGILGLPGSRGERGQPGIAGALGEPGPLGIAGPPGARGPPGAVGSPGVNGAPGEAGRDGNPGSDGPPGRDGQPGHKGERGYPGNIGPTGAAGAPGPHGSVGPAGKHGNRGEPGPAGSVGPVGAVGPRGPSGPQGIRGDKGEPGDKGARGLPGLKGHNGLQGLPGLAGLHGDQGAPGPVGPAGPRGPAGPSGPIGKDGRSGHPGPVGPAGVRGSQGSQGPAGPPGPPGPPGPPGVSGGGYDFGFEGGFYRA

One assay addresses T1, human collagen type I, acid soluble, extracted from placenta (Sigma C7774) (human, UniProt P02452 162-1218; P08123 80-1119).
T1 construct: tissue extract, gelled and dried in wells; also called dried human collagen; h-Collagen
As to the kind of experiment: dried collagen assay. How it is done: (§1) An additional 90 μL is reserved in a HPLC glass vial as a measure of the total concentration.
For GQWTCSGDEY[dA]WHCNA[dE] (disulfide 5-14 (inferred), cyclic, disulfide) [SEQ ID NO 124], the “% bound” value worked out at 24%.
Take DWTCS[dL]DEYTWHCNYE (disulfide 4-13 (inferred), cyclic, disulfide) [SEQ ID NO 183]: the “% bound” value turned out to be 73%.
For GQWTCSGDEYSWHCNY[dE] (disulfide 5-14 (inferred), cyclic, disulfide) [SEQ ID NO 125], the “% bound” value was 85%.
Still for that read-out and setting: in the case of B1 it was 90%.
On the same count and under the same terms, under B2 stands 46%; under B3, 9%.
The same measure, in the same setting: in the case of DWTCS[dS]DEYTWHCNYE (disulfide 4-13 (inferred), cyclic, disulfide) [SEQ ID NO 180] it was 81%; in that of GQWACSGDEYTWHCNYE (disulfide 5-14 (inferred), cyclic, disulfide) [SEQ ID NO 140], 84%; in that of B4, 49%.
With GAWTCSGDEYTWHCNYE (disulfide 5-14 (inferred), cyclic, disulfide) [SEQ ID NO 129], the “% bound” value was 87%.
Take DWTCS[dA]DEYTWHCNYE (disulfide 4-13 (inferred), cyclic, disulfide) [SEQ ID NO 179]: the “% bound” value worked out at 81%.
The same measure, in the same setting: under GQWTCSGDEYTWHCAYE (disulfide 5-14 (inferred); not fully specified (C-terminus), cyclic, disulfide) [SEQ ID NO 149] stands 82%; under B5, 30%; under DWTCS[dR]DEYTWHCNYE (disulfide 4-13 (inferred), cyclic, disulfide) [SEQ ID NO 181], 87%.
The same measure, in the same setting: in the case of GQWTCSGDAYTWHCAYE (disulfide 5-14 (inferred), cyclic, disulfide) [SEQ ID NO 128] it was 80%; in that of B6, 37%.
DWTCSGNHLTWYCNYG (disulfide 4-13 (inferred), cyclic, disulfide) [SEQ ID NO 118]: the “% bound” value came out at 68%.
On to B7, for which the “% bound” value was determined as 8%.
On the same count and under the same terms, under B8 stands 15%.
In the case of B9, the “% bound” value came out at 20%.
With B10, the “% bound” value turned out to be 56%.
Take GQWTCAGDEYTWHCNYE (disulfide 5-14 (inferred), cyclic, disulfide) [SEQ ID NO 141]: the “% bound” value is 87%.
As to GQWTCSGDEATWHCNYE (disulfide 5-14 (inferred); not fully specified (C-terminus), cyclic, disulfide) [SEQ ID NO 145], the “% bound” value was 68%.
In the case of GQWTCSGDEYTWACNYE (disulfide 5-14 (inferred); not fully specified (C-terminus), cyclic, disulfide) [SEQ ID NO 148], the “% bound” value amounted to 66%.
Still for that read-out and setting: under DWTCS[dY]DEYTWHCNYE (disulfide 4-13 (inferred), cyclic, disulfide) [SEQ ID NO 182] stands 89%.
Still for that read-out and setting: under GQWTCSGDEYTWHCNYA (disulfide 5-14 (inferred); not fully specified (C-terminus), cyclic, disulfide) [SEQ ID NO 151] stands 87%.
For the molecule GQWTCSGDEYTWHCNAE (disulfide 5-14 (inferred); not fully specified (C-terminus), cyclic, disulfide) [SEQ ID NO 150], the “% bound” value stood at 16%.
Still for that read-out and setting: in the case of GQWTCSGDAYTWHCNYE (disulfide 5-14 (inferred); not fully specified (C-terminus), cyclic, disulfide) [SEQ ID NO 144] it was 87%; in that of GQWTCSGAEYTWHCNYE (disulfide 5-14 (inferred), cyclic, disulfide) [SEQ ID NO 143], 66%.
On to QWTCSGDEYAWHCNYE (disulfide 4-13 (inferred); not fully specified (N-terminus, C-terminus), cyclic, disulfide) [SEQ ID NO 146], for which the “% bound” value worked out at 82%.
B11: the “% bound” value stood at 0%.
B12: the “% bound” value worked out at 38%.
Still for that read-out and setting: under B13 stands 24%; under GQWTCSGDEYTWHCNY (disulfide 5-14 (inferred), cyclic, disulfide) [SEQ ID NO 123], 59%.
For the molecule DWTCSGDHLTWHCNYG (disulfide 4-13 (inferred), cyclic, disulfide) [SEQ ID NO 116], the “% bound” value came to 58%.
As to DWTCSGDHLTWKCNYG (disulfide 4-13 (inferred), cyclic, disulfide) [SEQ ID NO 117], the “% bound” value was 38%.

A further assay concerns the target T2, rat collagen, acid soluble, type I, rat tail (Upstate 08-115) (rat, UniProt P02454 152-1207; P02466 86-1125).
T2 construct: tissue extract, gelled and dried in wells; also called dried rat collagen
As to the kind of experiment: dried collagen assay. How it is done: as §1
With GQWTCSGDEY[dA]WHCNA[dE] (disulfide 5-14 (inferred), cyclic, disulfide) [SEQ ID NO 124], the “% bound” value was 17%.
The same measure, in the same setting: in the case of DWTCS[dL]DEYTWHCNYE (disulfide 4-13 (inferred), cyclic, disulfide) [SEQ ID NO 183] it was 63%.
Still for that read-out and setting: in the case of GQWTCSGDEYSWHCNY[dE] (disulfide 5-14 (inferred), cyclic, disulfide) [SEQ ID NO 125] it was 86%.
On the same count and under the same terms, in the case of B1 it was 87%.
On to B2, for which the “% bound” value amounted to 31%.
As for B3, the “% bound” value was 8%.
For the molecule DWTCS[dS]DEYTWHCNYE (disulfide 4-13 (inferred), cyclic, disulfide) [SEQ ID NO 180], the “% bound” value was 72%.
For GQWACSGDEYTWHCNYE (disulfide 5-14 (inferred), cyclic, disulfide) [SEQ ID NO 140], the “% bound” value was 77%.
The same measure, in the same setting: under B4 stands 35%; under GAWTCSGDEYTWHCNYE (disulfide 5-14 (inferred), cyclic, disulfide) [SEQ ID NO 129], 84%.
On the same count and under the same terms, under DWTCS[dA]DEYTWHCNYE (disulfide 4-13 (inferred), cyclic, disulfide) [SEQ ID NO 179] stands 75%; under GQWTCSGDEYTWHCAYE (disulfide 5-14 (inferred); not fully specified (C-terminus), cyclic, disulfide) [SEQ ID NO 149], 82%; under B5, 27%.
On the same count and under the same terms, in the case of DWTCS[dR]DEYTWHCNYE (disulfide 4-13 (inferred), cyclic, disulfide) [SEQ ID NO 181] it was 86%; in that of GQWTCSGDAYTWHCAYE (disulfide 5-14 (inferred), cyclic, disulfide) [SEQ ID NO 128], 72%.
As for B6, the “% bound” value was 35%.
DWTCSGNHLTWYCNYG (disulfide 4-13 (inferred), cyclic, disulfide) [SEQ ID NO 118]: the “% bound” value was determined as 67%.
On the same count and under the same terms, under B7 stands 10%; under B8, 11%.
The same measure, in the same setting: under B9 stands 12%; under B10, 66%; under GQWTCAGDEYTWHCNYE (disulfide 5-14 (inferred), cyclic, disulfide) [SEQ ID NO 141], 83%.
GQWTCSGDEATWHCNYE (disulfide 5-14 (inferred); not fully specified (C-terminus), cyclic, disulfide) [SEQ ID NO 145]: the “% bound” value came out at 50%.
Same read-out and setting: in the case of GQWTCSGDEYTWACNYE (disulfide 5-14 (inferred); not fully specified (C-terminus), cyclic, disulfide) [SEQ ID NO 148] it was 73%; in that of DWTCS[dY]DEYTWHCNYE (disulfide 4-13 (inferred), cyclic, disulfide) [SEQ ID NO 182], 86%.
The same measure, in the same setting: in the case of GQWTCSGDEYTWHCNYA (disulfide 5-14 (inferred); not fully specified (C-terminus), cyclic, disulfide) [SEQ ID NO 151] it was 81%.
The same measure, in the same setting: under GQWTCSGDEYTWHCNAE (disulfide 5-14 (inferred); not fully specified (C-terminus), cyclic, disulfide) [SEQ ID NO 150] stands 9%.
As for GQWTCSGDAYTWHCNYE (disulfide 5-14 (inferred); not fully specified (C-terminus), cyclic, disulfide) [SEQ ID NO 144], the “% bound” value turned out to be 77%.
Same read-out and setting: in the case of GQWTCSGAEYTWHCNYE (disulfide 5-14 (inferred), cyclic, disulfide) [SEQ ID NO 143] it was 51%; in that of QWTCSGDEYAWHCNYE (disulfide 4-13 (inferred); not fully specified (N-terminus, C-terminus), cyclic, disulfide) [SEQ ID NO 146], 77%; in that of B11, 0%.
Take B12: the “% bound” value was found to be 48%.
On to B13, for which the “% bound” value stood at 21%.
On the same count and under the same terms, in the case of GQWTCSGDEYTWHCNY (disulfide 5-14 (inferred), cyclic, disulfide) [SEQ ID NO 123] it was 72%; in that of DWTCSGDHLTWHCNYG (disulfide 4-13 (inferred), cyclic, disulfide) [SEQ ID NO 116], 35%; in that of DWTCSGDHLTWKCNYG (disulfide 4-13 (inferred), cyclic, disulfide) [SEQ ID NO 117], 24%.
